# Laboratory results as given in PMC12414692.
# Key:
# [1] = biological target: hNaV1.5 (human voltage-activated sodium channel alpha subunit NaV1.5, wild type) (human) (UniProt Q14524)
# [2] = biological target: hNaV1.5 ΔKPQ (deletion of lysine, proline and glutamine at positions 1505–1507) (human) (UniProt Q14524)
binder,measurement,setting,value
KKLITFILKKTREK [β4 peptide (derived from Homo sapiens sodium channel β4 subunit)],"current availability at pulse III (0 mV) after conditioning pulses from −20 to 90 mV and 5 ms at −100 mV, 30 μM β4 peptide in the pipette",[1],1.5 fold
same,"normalized INaR peak current, whole-cell voltage clamp of HEK293T cells, 30 μM β4 peptide in the pipette, against wild-type hNaV1.5 with the peptide (fold (against wild type with β4 peptide))",[2],2
